Assay results from the Human Domainome abundance scans (Beltran et al. 2025).

B1: POU domain, class 3, transcription factor 1, residues 247 to 324; numbered along this chain, Q03052 (parent)
chain: EDAPSSDDLEQFAKQFKQRRIKLGFTQADVGLALGTLYGNVFSQTTICRFEALQLSFKNMCKLKPLLNKWLEETDSSS

Variants of: B1
Experiment: abundance fitness (aPCA) (normalised: wild type 0, dead -1); higher = more abundant; growth selection in yeast, the domain comes from the species named
Details: Homo sapiens

Abundance fitness, by site and new letter:
F50: H -1.09 | C -0.943 | M -0.597 | D -0.993 | A -0.826 | N -0.874 | P -0.484 | I -0.556 | Q -0.498 | E -0.299 | K -0.903 | L -0.718 | G -0.736
I47: D -1.24 | E -1.12 | Q -0.954 | H -0.944 | R -0.555 | G -0.751 | P -0.661 | M -0.69 | T -0.883 | L -0.304 | V -0.228 | S -0.736 | C -0.294 | A -0.765 | W -0.408
G35: F -0.211 | S 0.064 | V -0.641 | M -0.4 | P -1.13 | C -0.299 | T 0.236 | Y -0.313 | K -0.125 | A -0.097 | H -0.37 | D -0.571 | Q -0.125 | R 0.005 | W -0.439
T45: S -0.017 | M -0.205 | Q 0.167 | I -0.557 | A -0.023 | W -0.443 | F -0.016 | R 0.016 | C -0.346 | Y -0.304 | L -0.102 | P -0.434 | V -0.148 | D 0.254 | E 0.185 | N 0.112 | G -0.076 | H -0.055
G31: T -0.085 | Q -0.337 | L -0.509 | H -0.228 | R -0.46 | D -0.417 | N -0.437 | E -0.18 | S 0.04 | Y -0.957 | V -0.262 | W -0.444 | A 0.161 | M -0.494 | P -0.983 | K -0.702
V41: S 0.05 | P 0.087 | M 0.03 | D -0.141 | N 0.116 | L -0.127 | H 0.253 | Q 0.093 | E 0.058 | K 0.141 | R -0.035 | Y -0.079 | I 0.025 | F -0.427 | G 0.016 | A -0.018 | C -0.142
V30: P -0.787 | G -0.957 | T -0.807 | H -0.303 | F -0.485 | K -0.425 | W -0.386 | E -0.601 | Q -0.759 | N -0.281 | C -0.319 | A -0.411 | I -0.055 | M -0.65 | R -0.975 | L -0.175
L32: N -0.371 | R 0.122 | M -0.039 | H 0.033 | Y -0.148 | K 0.086 | D 0.182 | G -0.372 | F 0.186 | V -0.183 | P -0.898 | E -0.017 | Q 0.148 | I 0.163 | S 0.152 | C 0.095 | W -0.185
F42: I 0.231 | Y 0.048 | S -0.365 | P -0.265 | V 0.064 | T -0.071 | K -0.656 | D -0.295 | R -0.493 | L -0.043 | W -0.191 | H -0.226 | G -0.594 | Q 0.001 | N -0.597 | M 0.014 | E -0.114
C48: E 0.174 | W -0.37 | S 0.144 | N -0.21 | D 0.307 | H -0.021 | I 0.094 | F 0.068 | Q 0.064 | T -0.086 | K -0.011 | V -0.151 | G 0.032 | P -0.175 | A 0.129 | Y -0.312 | L -0.04
Q44: M -0.262 | N 0.01 | V -0.209 | H -0.046 | T 0.118 | C -0.515 | I -0.472 | E 0.266 | F -0.323 | L -0.502 | Y -0.266 | P 0.132 | G 0.03 | D 0.195 | K 0.041 | R -0.067 | A 0.119 | S 0.025 | W -0.55
Y38: D -0.058 | H -0.014 | M -0.486 | N 0.019 | A -0.153 | L -0.418 | Q -0.173 | F -0.13 | K -0.153 | P -0.44 | S -0.026 | V -0.031 | E -0.332 | R -0.383 | C -0.029 | W -0.43 | I 0.108
L34: C -0.397 | G -0.866 | I -0.536 | D -0.415 | S -0.859 | P -0.772 | R -0.844 | T -0.311 | W -0.914 | A -0.42 | K -0.698 | F -0.408 | V -0.464 | M -0.158
L37: Y 0.175 | K 0.137 | H 0.133 | G -0.275 | E -0.062 | F -0.06 | I 0.11 | W -0.251 | N -0.333 | S -0.261 | D -0.35 | Q -0.054 | V -0.198 | C 0.206 | M 0.097
T46: Y -0.037 | V -0.096 | Q -0.314 | N -0.373 | D 0.118 | A -0.125 | S -0.191 | I -0.121 | P -0.533 | L -0.279 | K -0.304 | C -0.64 | M 0.069 | H -0.261 | R -0.509
T36: I -0.178 | K 0.111 | A -0.162 | Q 0.032 | D 0.112 | Y -0.416 | S 0.134 | C -0.18 | L -0.154 | F -0.659 | R 0.089 | N -0.025 | H -0.299 | G -0.166 | V -0.36 | M 0.02 | W -0.532 | P -0.262 | E 0.158
R49: W 0.051
N40: A -0.179 | P -0.276 | S 0.004 | R 0.07 | Q 0.103 | K 0.263 | I -0.117 | G 0.008 | L -0.237 | E 0.031 | T 0.031 | H -0.179 | D 0.062 | W -0.244 | V -0.131 | Y -0.282 | M -0.126 | F -0.167
G39: M -1.04 | L -0.751 | I -0.488 | S -0.258 | A -0.365 | W -0.421 | H 0.144 | V -0.846 | P -0.124 | C -0.523 | D -0.192 | T -0.196 | N -0.213 | R -0.198 | E -0.344
A33: V -0.255 | Y -0.221 | C -0.474 | Q 0.096 | H -0.332 | E 0.047 | L 0.003 | K -0.067 | P -0.645 | F -0.105 | I -0.317 | W -0.195 | N -0.075 | T -0.405 | D -0.504
S43: W -0.371 | Y -0.389 | T -0.04 | M -0.63 | C -0.485 | H -0.108 | N 0.045 | L -0.872 | R -0.329 | F -1.04 | D 0.17 | K -0.234 | V -0.835 | A -0.378 | G -0.297 | P -0.007
D29: W -0.631 | V -0.679 | S -0.28 | Q 0.184 | P -0.614 | N -0.729 | M -0.654 | R -0.316 | T -0.512
